# Results: paper PMC4250094 (Structure (London, England : 1993), 2010)
# Target: the molecule itself
# Test: oligomer pelleting by centrifugation with UV absorbance of the supernatant
protein,measurement,value
"RAGE VC1 (tandem V and C1 domains of the receptor for advanced glycation end products) (domain or fragment, human) AQNITARIGEPLVLKCKGAPKKPPQRLEWKLNTGRTEAWKVLSPQGGGPWDSVARVLPNGSLFLPAVGIQDEGIFRCQAMNRNGKETKSNYRVRVYQIPGKPEIVDSASELTAGVPNKVGTCVSEGSYPAGTLSWHLDGKPLVPNEKGVSVKEQTRRHPETGLFTLQSELMVTPARGGDPRPTFSCSFSPGLPRHRALRTAPIQPRVWEPVPLEEVQL",Kd,3.8 ± 1.3 µM
